Source: the RNAGym collection of RNA variant scans (doi:10.1093/nar/gkz1192)

B1: CPEB3 Ribozyme (parent)
chain: UAACAGGGGGCCACAGCAGAAGCGUUCACGUCGCAGCCCCUGUCAGAUUCUGGUGAAUCUGCGAAUUCUGCUGUAUAUCUC

Variants of: B1
Assay: self-cleavage, relative activity (ratio to wild type); higher = more cleavage; in vitro, sequencing
Method in brief: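 Libraries of CPEB3 self-cleaving ribozyme mutants came from rounds of error-prone PCR and carried barcodes, which DNA sequencing matched to variants. In vitro transcription used T7 RNA polymerase at 37°C for 5 hours, with a further 15 min in DNase I before EDTA stopped the reaction; the ribozymes cleaved during both steps. The RNA was reverse transcribed with template switching and sequenced on Illumina. Relative activity is the cleaved/total read fraction of a variant divided by that of the unmutated ribozyme, averaged over three batches with at least 5 reads.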

First: A28U C39U
Second: C29G A56G
The self-cleavage of the first is higher: 0.48 for the first, 0.23 for the second.

Compared with A28U C71U, C29G A35G is higher in self-cleavage: 0.39 for the first, 0.67 for the second.

Compared with A28G G61U, A28G G61A is lower in self-cleavage: 0.5 for the first, 0.38 for the second.

Going from A28G G61C to A28U C32A, the self-cleavage rises from 0.15 to 0.19.

First: A28U C32U
Second: C29A A75G
The self-cleavage of the first is lower: 0.17 for the first, 0.38 for the second.

First: C29A U72C
Second: C29A U72G
The self-cleavage of the first is higher: 0.31 for the first, 0.18 for the second.

First: C29G A65G
Second: A28G C40G
The self-cleavage of the first is higher: 0.27 for the first, 0.22 for the second.

First: A28G C40U
Second: A28U U69C
The self-cleavage of the first is higher: 0.48 for the first, 0.33 for the second.

First: A28U U69G
Second: A28U U69A
The self-cleavage of the first is higher: 0.42 for the first, 0.37 for the second.

Compared with C29U A77U, C29U A77C is higher in self-cleavage: 0.49 for the first, 0.5 for the second.

Compared with C29U A77G, A28G U49C is lower in self-cleavage: 0.61 for the first, 0.22 for the second.

First: A28G U49A
Second: C29G A64G
The self-cleavage of the first is lower: 0.31 for the first, 0.41 for the second.

First: A28G U43G
Second: A28G U43C
The self-cleavage of the first is lower: 0.17 for the first, 0.35 for the second.

Compared with A28G U43A, A28G U78A is lower in self-cleavage: 0.86 for the first, 0.71 for the second.

Compared with A28G U78C, A28G U78G is higher in self-cleavage: 0.61 for the first, 0.67 for the second.

Going from A28G C44A to A28G C44U, the self-cleavage rises from 0.12 to 0.28.

Going from A28G G42A to A28G G42C, the self-cleavage falls from 0.46 to 0.18.

Compared with A28G G42U, A28U U31C is higher in self-cleavage: 0.26 for the first, 0.53 for the second.

Going from A28U U31G to A28U U31A, the self-cleavage rises from 0.31 to 0.41.

Going from C29A U74A to A28G C37U, the self-cleavage falls from 0.62 to 0.43.

Compared with A28G C37A, A28U A35G is higher in self-cleavage: 0.21 for the first, 1.22 for the second.

Compared with A28U A35U, A28U A35C is higher in self-cleavage: 0.35 for the first, 0.47 for the second.

First: A28U U80C
Second: A28U U80A
The self-cleavage of the first is higher: 0.97 for the first, 0.71 for the second.

Going from C29A U66C to C29G U58C, the self-cleavage rises from 0.29 to 0.52.

Compared with A28G U41A, A28G U41C is higher in self-cleavage: 0.27 for the first, 0.6 for the second.

Compared with A28G U41G, C29U A56C is higher in self-cleavage: 0.15 for the first, 0.42 for the second.

Going from C29U A56U to C29U A56G, the self-cleavage rises from 0.16 to 0.38.

First: A28U C59U
Second: A28U C59A
The self-cleavage of the first is higher: 0.34 for the first, 0.21 for the second.

Compared with A28G U48C, A28G U48G is higher in self-cleavage: 0.29 for the first, 0.43 for the second.

Going from A28G U48A to A28U A57U, the self-cleavage rises from 0.26 to 0.5.

Compared with A28U A57G, A28G C38G is lower in self-cleavage: 0.64 for the first, 0.25 for the second.

Going from A28G C38A to A28G C38U, the self-cleavage rises from 0.29 to 0.54.

Compared with C29A A45G, C29G U54C is lower in self-cleavage: 0.46 for the first, 0.24 for the second.

First: C29G U54A
Second: A28U G30A
The self-cleavage of the first is higher: 0.28 for the first, 0.11 for the second.

First: A28U G30U
Second: A28U U67C
The self-cleavage of the first is lower: 0.2 for the first, 0.27 for the second.

Going from A28U U67G to A28U U67A, the self-cleavage rises from 0.2 to 0.3.

Going from A28U U72A to A28U U72C, the self-cleavage rises from 0.55 to 0.88.

Compared with A28U U72G, A28G G55U is lower in self-cleavage: 0.89 for the first, 0.68 for the second.

Going from A28G G55A to A28G G55C, the self-cleavage rises from 0.33 to 0.39.

First: A28G U72G
Second: A28G U72A
The self-cleavage of the first is higher: 0.56 for the first, 0.3 for the second.

Compared with A28G U72C, A28U C40G is lower in self-cleavage: 0.67 for the first, 0.19 for the second.

First: A28U C40U
Second: A28U C40A
The self-cleavage of the first is higher: 0.59 for the first, 0.47 for the second.

Going from A28G G33A to A28G G33U, the self-cleavage falls from 0.22 to 0.16.

Going from C29A A47G to A28U A75U, the self-cleavage rises from 0.4 to 0.99.

Compared with A28U A75G, C29G U69G is lower in self-cleavage: 0.71 for the first, 0.12 for the second.

First: C29G U69A
Second: C29G U69C
The self-cleavage of the first is lower: 0.13 for the first, 0.21 for the second.

Compared with C29G C34G, C29G C34U is lower in self-cleavage: 0.22 for the first, 0.08 for the second.

Compared with A28U, A28G C29U is lower in self-cleavage: 0.81 for the first, 0.52 for the second.

First: A28U G53U
Second: A28U G53A
The self-cleavage of the first is higher: 1 for the first, 0.87 for the second.

Compared with A28G U74A, A28G U74G is higher in self-cleavage: 1.06 for the first, 1.08 for the second.

Going from A28G U74C to A28U A47U, the self-cleavage falls from 1 to 0.67.

Going from A28U A47G to A28U C79U, the self-cleavage rises from 0.89 to 0.99.

Compared with C29A A56G, A28U U66C is lower in self-cleavage: 0.43 for the first, 0.37 for the second.

Compared with A28U U66G, A28U U66A is lower in self-cleavage: 0.69 for the first, 0.31 for the second.

First: C29A A77G
Second: C29A A77U
The self-cleavage of the first is higher: 0.46 for the first, 0.33 for the second.

Going from C29U A65G to C29A U49A, the self-cleavage rises from 0.27 to 0.45.

Compared with C29A U49G, C29A U49C is higher in self-cleavage: 0.22 for the first, 0.29 for the second.

Compared with C29U C37U, A28U C37U is higher in self-cleavage: 0.34 for the first, 0.41 for the second.

First: A28G U67G
Second: A28G U67A
The self-cleavage of the first is lower: 0.17 for the first, 0.27 for the second.

Compared with A28G U67C, A28U C81A is higher in self-cleavage: 0.17 for the first, 0.84 for the second.

Going from A28U C81U to A28U C50A, the self-cleavage falls from 0.86 to 0.53.

First: A28U C50U
Second: A28U C50G
The self-cleavage of the first is higher: 0.8 for the first, 0.74 for the second.

Compared with A28G G73U, A28G G73C is higher in self-cleavage: 1.26 for the first, 1.29 for the second.

Compared with A28G G73A, A28U U78G is lower in self-cleavage: 1.16 for the first, 0.97 for the second.

Compared with A28U U78C, A28U U78A is lower in self-cleavage: 0.73 for the first, 0.51 for the second.

Going from C29A U80C to A28U U43A, the self-cleavage rises from 0.54 to 1.

First: A28U U43C
Second: C29U A64C
The self-cleavage of the first is higher: 0.41 for the first, 0.24 for the second.

First: C29U A64U
Second: C29U A64G
The self-cleavage of the first is higher: 0.25 for the first, 0.23 for the second.

First: C29A U41C
Second: C29A U41A
The self-cleavage of the first is higher: 0.39 for the first, 0.37 for the second.

First: C29A U41G
Second: A28G C39A
The self-cleavage of the first is higher: 0.43 for the first, 0.06 for the second.

First: A28G C39U
Second: C29A U67C
The self-cleavage of the first is higher: 0.57 for the first, 0.11 for the second.

First: C29A U67A
Second: A28G U76A
The self-cleavage of the first is lower: 0.46 for the first, 0.61 for the second.

Going from A28G U76C to A28G U76G, the self-cleavage falls from 0.67 to 0.56.

First: A28U G52A
Second: C29A A35U
The self-cleavage of the first is higher: 0.83 for the first, 0.51 for the second.

Compared with C29A A35G, C29U C38U is lower in self-cleavage: 1.11 for the first, 0.16 for the second.

First: A28U G70A
Second: A28U G46A
The self-cleavage of the first is lower: 0.27 for the first, 0.46 for the second.

First: A28U G46U
Second: A28U A56G
The self-cleavage of the first is lower: 0.14 for the first, 0.53 for the second.

First: A28U A56U
Second: C29G U41C
The self-cleavage of the first is higher: 0.57 for the first, 0.2 for the second.

Going from C29G U41G to C29G U41A, the self-cleavage rises from 0.15 to 0.33.

Compared with C29U C40U, C29A A57G is lower in self-cleavage: 0.51 for the first, 0.33 for the second.

First: C29A U48C
Second: C29A U48A
The self-cleavage of the first is higher: 0.11 for the first, 0.09 for the second.

Going from C29G U74C to C29A, the self-cleavage rises from 0.31 to 0.44.

First: C29G
Second: C29U
The self-cleavage of the first is lower: 0.3 for the first, 0.51 for the second.

A28G G53A showed a self-cleavage of 0.78.
